# B1: varlilumab (antibody, human IgG1, kappa, V domains shown)
# VH: QVQLVESGGGVVQPGRSLRLSCAASGFTFSSYDMHWVRQAPGKGLEWVAVIWYDGSNKYYADSVKGRFTISRDNSKNTLYLQMNSLRAEDTAVYYCARGSGNWGFFDYWGQGTLVTVSS
# VL: DIQMTQSPSSLSASVGDRVTITCRASQGISRWLAWYQQKPEKAPKSLIYAASSLQSGVPSRFSGSGSGTDFTLTISSLQPEDFATYYCQQYNTYPRTFGQGTKVEIKR
# notes: Fully human monoclonal anti-human CD27 antibody; also called 1F5; CDX-1127
# B2: varlimut: a FCD265A mutated mouse IgG1 isotype of varlilumab (antibody, V domains shown)
# VH: B1 VH
# VL: DIQMTQSPSSLSASVGDRVTITCRASQGISRWLAWYQQKPEKAPKSLIYAASSLQSGVPSRFSGSGSGTDFTLTISSLQPEDFATYYCQQYNTYPRTFGQGTKVEIK
# B3: mouse CD70-Fc fusion protein (Fc fusion, UniProt O55237 45-195, looked up)
# chain: SKQQQRLLEHPEPHTAELQLNLTVPRKDPTLRWGAGPALGRSFTHGPELEEGHLRIHQDGLYRLHIQVTLANCSSPGSTLQHRATLAVGICSPAAHGISLLRGRFGQDCTVALQRLTYLVHGDVLCTNLTLPLLPSRNADETFFGVQWICP
# notes: Fluorescence-labeled; also called mCD70-Fc; not shown: Fc part
# What was measured:
# E.G7 cells = assay: E.G7 tumor model with OT-I T-cell adoptive therapy; type: in vivo, mice; conditions: 100 μg i.p. day 8 or 20 μg day 17
# [1] = target: T1, CD27 extracellular domain fragment, amino acid residues 1-110, R87A mutation sequence, fused with a human … (human, UniProt P26842 21-130); assay: ELISA, CD27 fragment captured by anti-flag Ab
# T1 construct: Used as culture supernatant of transient transfection; also called CD27R87A; mutant CD27 fragment; not shown: human kappa chain at the N-terminus; flag-tag at the C-terminus
# T1 chain: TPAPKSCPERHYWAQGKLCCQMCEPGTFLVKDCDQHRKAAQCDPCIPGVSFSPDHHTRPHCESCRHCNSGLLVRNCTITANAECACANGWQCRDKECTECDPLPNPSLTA
# [2] = system: SIINFEKL-specific IFNγ spots; assay: OVA immunisation ELISPOT (co-stimulatory/agonistic activity); type: in vivo; conditions: 5 mg OVA and 50 μg Ab on day 0, spleens 7 days later, hCD27+/-mCD27wt mice
# Description: Shown are […]-specific IFNγ spots number per spleen, n=4 or 5 mice per group (FIG. 9C). Data are from one representative experiment of two performed, *p<0.05, ***p<0.001, ****p<0.0001, indicating statistical significance compared to isotype control or between groups as specified by the horizontal line.
# Spleens were collected 7 days later for ELISPOT analysis. Shown are […]-specific IFNγ spots number per spleen, n=5 mice per group (FIG. 10C). Data are from one representative experiment of two performed, *p<0.05, **p<0.01, indicating statistical significance compared to isotype control or between groups as specified by the horizontal line.
# [3] = target: T2, human CD70-Fc binding to CD27 on CD4+CD25+ Treg cells (Homo sapiens, UniProt P26842); assay: hCD70-Fc staining on hCD27+/+mCD27-/- splenocytes preincubated with Ab (ligand blocking); conditions: 10 μg Ab 30 minutes on ice, vs hIgG1 isotype control
# T2 construct: from tissue; host or cells: splenocytes from hCD27+/+ mCD27-/- transgenic mice
# T2 sequence (P26842 20-260): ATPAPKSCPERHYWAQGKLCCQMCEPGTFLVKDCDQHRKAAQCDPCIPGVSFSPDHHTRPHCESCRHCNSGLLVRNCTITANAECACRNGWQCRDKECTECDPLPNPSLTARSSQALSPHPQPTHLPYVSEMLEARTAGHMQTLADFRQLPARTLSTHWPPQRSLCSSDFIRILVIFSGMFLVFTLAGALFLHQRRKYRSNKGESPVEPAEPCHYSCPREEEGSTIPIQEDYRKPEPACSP
# Description: Splenocytes from hCD27^+/+mCD27^−/− mice were incubated with 10 μg Ab as indicated for 30 minutes on ice and then stained with a fluorescently labeled human CD70-Fc fusion protein (0.5 μg) and Abs for cell surface markers. Shown is a histogram of hCD70-Fc staining on gated CD4^+CD25^+ Treg cells.
# recipient CD3 T-cells = assay: Recipient T-cell depletion after CD27 Ab pretreatment (flow cytometry); type: in vivo, mice; conditions: 300 μg days -14 and -2, hCD27+/+mCD27-/- mice
# Description: Spleens and pLNs were collected from one set of mice on day 0 without cell transfusion and from another set of mice 14 days post intravenous (i.v.) transfusion with 2×10^6 CFSE-labeled w.t. CD8 T-cells for the assessment of recipient cell depletion (FIG. 4A) and donor cell expansion (FIG. 4B). Percentages of recipient CD3 T-cells (CD45.1^+CD45.2^−CD3^+) and donor origin CD8 T-cells (CD45.1^−CD45.2^+CD3^+CD8^+) out of total live cells in spleens and pLNs were determined by flow cytometry and the absolute numbers of donor origin cells were calculated based on total cell counts of spleens and pLNs.
# These mice were bled and then transfused with 2×10^6 CD8 T-cells on day 0. Shown are the percentages of donor origin cells out of total live cells in the spleen and pLNs after 14 days of in vivo expansion (FIG. 10A) and the percentages of CD3 T cells in recipients' blood on day 0 before transfusion (FIG. 10B). Data are from one representative experiment of two performed, n=5 mice per group, *p<0.05, **p<0.01, ***p<0.001 indicating statistical significance compared to isotype control or between groups as specified by the horizontal line.
# CD8 T cells on day 0. Spleens and pLNs were collected on day 14 and processed for flow cytometry analysis. […] CD8, CD4 and Treg cell counts per μl blood were depicted in FIG. 11C (n=6 mice per group).
# [4] = target: T3, mouse CD27 on splenocytes (gated CD4+CD25+ Treg cells) of w.t. mice (mouse, UniProt P41272 24-250); assay: flow cytometry, labeled mCD70-Fc (0.5 ug) on gated CD4+CD25+ Treg cells of w.t. mouse splenocytes
# T3 construct: whole, on cells; also called mCD27
# T3 sequence (looked up): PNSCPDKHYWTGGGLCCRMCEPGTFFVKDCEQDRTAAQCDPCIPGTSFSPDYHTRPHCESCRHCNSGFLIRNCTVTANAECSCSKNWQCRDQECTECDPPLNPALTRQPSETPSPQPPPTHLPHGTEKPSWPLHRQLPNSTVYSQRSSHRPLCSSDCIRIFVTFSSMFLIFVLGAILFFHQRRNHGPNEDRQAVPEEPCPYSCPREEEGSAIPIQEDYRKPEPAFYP
# Description: FMO stands for fluorescence minus one, reflecting background fluorescence on the same gated cells.
molecule,measurement,setting,value
SIINFEKL (Ovalbumin peptide; listed as Gallus gallus) [reference compound],long-term survival with or without SIINFEKL peptide injection following OT-I T cell transfer,E.G7 cells,no difference in long-term survival
B1,binding result,[1],no binding
B2,co-stimulatory / agonistic activity (SIINFEKL-specific IFNγ spots number per spleen),[2],no depleting and agonistic activities
same,hCD70-Fc staining on gated CD4+CD25+ Treg cells (ligand blocking),[3],blocks ligand binding
same,depleting activity (percentages of CD3 T cells in recipients' blood on day 0),recipient CD3 T-cells,no depleting and agonistic activities
B3,binding result,[4],binds

# Reference: patent US20220016168A1, “METHODS OF USING CD27 ANTIBODIES AS CONDITIONING TREATMENT FOR ADOPTIVE CELL THERAPY” (Celldex Therapeutics, Inc., priority 2018, published 2022)
